Measurements from patent publication US10087225B2, “Formulation of MK2 inhibitor peptides” (MOERAE MATRIX, INC., priority 2015, dated 2018).

Key:
Assay in all cases: Kinase Profiling Assay
Type in all cases: biochemical
Conditions in all cases: for % activity: 100 μM
cSRC(h) = cSRC(h) (Homo sapiens, UniProt P12931)
PKCζ(h) = target: T1, PKCζ(h) (Homo sapiens, UniProt Q05513)
T1 sequence (Q05513 1-592): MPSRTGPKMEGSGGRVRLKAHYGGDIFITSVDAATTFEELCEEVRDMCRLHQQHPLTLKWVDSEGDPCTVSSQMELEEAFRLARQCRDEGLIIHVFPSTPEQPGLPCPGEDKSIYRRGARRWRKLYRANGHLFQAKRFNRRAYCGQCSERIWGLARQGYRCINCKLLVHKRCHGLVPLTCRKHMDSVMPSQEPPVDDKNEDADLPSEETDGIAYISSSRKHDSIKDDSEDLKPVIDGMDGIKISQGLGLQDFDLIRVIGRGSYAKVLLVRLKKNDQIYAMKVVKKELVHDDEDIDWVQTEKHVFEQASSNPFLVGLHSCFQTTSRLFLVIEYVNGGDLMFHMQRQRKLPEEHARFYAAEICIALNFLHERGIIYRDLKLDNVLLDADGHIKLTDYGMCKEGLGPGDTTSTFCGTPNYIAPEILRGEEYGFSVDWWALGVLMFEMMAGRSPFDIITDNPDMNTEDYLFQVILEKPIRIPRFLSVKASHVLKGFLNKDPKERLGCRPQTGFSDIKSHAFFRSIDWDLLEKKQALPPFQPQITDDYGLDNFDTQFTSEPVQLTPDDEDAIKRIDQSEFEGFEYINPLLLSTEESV

NEK3(h) = target: T2, NEK3(h) (Homo sapiens, UniProt P51956)
T2 sequence (P51956 1-506): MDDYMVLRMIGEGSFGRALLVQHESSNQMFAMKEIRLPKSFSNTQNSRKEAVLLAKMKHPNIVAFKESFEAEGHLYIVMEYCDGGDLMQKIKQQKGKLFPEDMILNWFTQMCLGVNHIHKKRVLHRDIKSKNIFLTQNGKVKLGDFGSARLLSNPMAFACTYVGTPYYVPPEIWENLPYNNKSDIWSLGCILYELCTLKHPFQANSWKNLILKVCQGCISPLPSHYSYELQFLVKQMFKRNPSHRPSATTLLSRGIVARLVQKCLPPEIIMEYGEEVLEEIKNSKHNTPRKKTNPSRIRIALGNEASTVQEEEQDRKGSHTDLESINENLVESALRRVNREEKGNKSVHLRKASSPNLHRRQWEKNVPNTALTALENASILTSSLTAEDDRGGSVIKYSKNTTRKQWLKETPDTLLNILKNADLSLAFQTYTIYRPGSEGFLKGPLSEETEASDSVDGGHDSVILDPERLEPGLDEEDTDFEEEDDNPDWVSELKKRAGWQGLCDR

ULK3(h) = target: T3, ULK3(h) (Homo sapiens, UniProt Q6PHR2)
T3 sequence (Q6PHR2 1-472): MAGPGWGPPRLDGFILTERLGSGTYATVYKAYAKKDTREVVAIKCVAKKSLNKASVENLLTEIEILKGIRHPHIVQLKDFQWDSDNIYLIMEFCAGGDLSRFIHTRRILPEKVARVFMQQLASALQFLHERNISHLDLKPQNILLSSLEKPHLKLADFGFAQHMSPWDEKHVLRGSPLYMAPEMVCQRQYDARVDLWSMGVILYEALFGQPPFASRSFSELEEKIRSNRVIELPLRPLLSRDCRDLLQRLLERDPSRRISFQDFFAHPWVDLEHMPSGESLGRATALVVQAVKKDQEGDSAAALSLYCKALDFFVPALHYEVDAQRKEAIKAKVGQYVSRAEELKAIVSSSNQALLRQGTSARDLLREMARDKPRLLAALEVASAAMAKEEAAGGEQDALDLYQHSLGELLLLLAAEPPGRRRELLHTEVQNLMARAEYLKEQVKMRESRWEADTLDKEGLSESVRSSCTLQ

IRAK4(h) = target: T4, IRAK4(h) (Homo sapiens, UniProt Q9NWZ3)
T4 sequence (Q9NWZ3 1-460): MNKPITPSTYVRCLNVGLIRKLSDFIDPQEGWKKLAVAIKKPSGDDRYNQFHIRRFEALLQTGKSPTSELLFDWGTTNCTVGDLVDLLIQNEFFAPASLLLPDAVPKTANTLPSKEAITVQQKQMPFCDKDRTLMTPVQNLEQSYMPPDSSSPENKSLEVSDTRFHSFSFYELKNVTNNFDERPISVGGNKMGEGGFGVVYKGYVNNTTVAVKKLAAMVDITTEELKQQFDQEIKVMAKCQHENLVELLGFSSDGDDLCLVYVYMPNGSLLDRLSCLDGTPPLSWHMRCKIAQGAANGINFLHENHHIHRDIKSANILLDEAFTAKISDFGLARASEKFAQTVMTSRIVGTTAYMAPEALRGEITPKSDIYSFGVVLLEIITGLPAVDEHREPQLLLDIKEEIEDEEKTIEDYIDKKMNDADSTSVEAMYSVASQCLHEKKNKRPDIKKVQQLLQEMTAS

Substance	% activity (cSRC(h)) [%]	% activity (PKCζ(h)) [%]	% activity (NEK3(h)) [%]	% activity (ULK3(h)) [%]	% activity (IRAK4(h)) [%]	activity at 100 µM (cSRC(h)) [%]	activity at 100 µM (PKCζ(h)) [%]	activity at 100 µM (NEK3(h)) [%]	activity at 100 µM (ULK3(h)) [%]	activity at 100 µM (IRAK4(h)) [%]
HRRIKAWLKKIKALARQLGVAA (Mammalian) [MMI-0500]	30	7	20	177	3					
YARAAARQARAKALNRQLGVA (Mammalian) [MMI-0200]	32	98	100	164	110					
H-YARAAARQARAKALARQLGVAA-OH [MMI-0100]						70	82	100	142	100
